Reference: paper PMC3328432, “Molecular Requirements for Peroxisomal Targeting of Alanine-Glyoxylate Aminotransferase as an Essential Determinant in Primary Hyperoxaluria Type 1” (PLoS Biology, 2012)

Molecular target: AGT of all performed ITC measurements (wild type and AGT mutants of Table S1)
Experiment: ITC; 25–46 µM AGT as sample in the cell, 250–460 µM Pex5p(C) as titration ligand, 27 injections of 10 µl; 25°C; 100 mM HEPES pH 7.5, 150 mM NaCl, 2 mM ß-mercaptoethanol

- stoichiometry N: 1.02
Substance: C-terminal cargo-binding segment of human Pex5p (residues 315-639) (from UniProt P50542 315-639) (domain or fragment)
